B1: Serotonin N-acetyltransferase (Homo sapiens), Q16613 (parent)
chain: MSTQSTHPLKPEAPRLPPGIPESPSCQRRHTLPASEFRCLTPEDAVSAFEIEREAFISVLGVCPLYLDEIRHFLTLCPELSLGWFEEGCLVAFIIGSLWDKERLMQESLTLHRSGGHIAHLHVLAVHRAFRQQGRGPILLWRYLHHLGSQPAVRRAALMCEDALVPFYERFSFHAVGPCAITVGSLTFMELHCSLRGHPFLRRNSGC
B2: DNA mismatch repair protein Mlh1 (Homo sapiens), P40692 (parent)
chain: MSFVAGVIRRLDETVVNRIAAGEVIQRPANAIKEMIENCLDAKSTSIQVIVKEGGLKLIQIQDNGTGIRKEDLDIVCERFTTSKLQSFEDLASISTYGFRGEALASISHVAHVTITTKTADGKCAYRASYSDGKLKAPPKPCAGNQGTQITVEDLFYNIATRRKALKNPSEEYGKILEVVGRYSVHNAGISFSVKKQGETVADVRTLPNASTVDNIRSIFGNAVSRELIEIGCEDKTLAFKMNGYISNANYSVKKCIFLLFINHRLVESTSLRKAIETVYAAYLPKNTHPFLYLSLEISPQNVDVNVHPTKHEVHFLHEESILERVQQHIESKLLGSNSSRMYFTQTLLPGLAGPSGEMVKSTTSLTSSSTSGSSDKVYAHQMVRTDSREQKLDAFLQPLSKPLSSQPQAIVTEDKTDISSGRARQQDEEMLELPAPAEVAAKNQSLEGDTTKGTSEMSEKRGPTSSNPRKRHREDSDVEMVEDDSRKEMTAACTPRRRIINLTSVLSLQEEINEQGHEVLREMLHNHSFVGCVNPQWALAQHQTKLYLLNTTKLSEELFYQILIYDFANFGVLRLSEPAPLFDLAMLALDSPESGWTEEDGPKEGLAEYIVEFLKKKAEMLADYFSLEIDEEGNLIGLPLLIDNYVPPLEGLPIFILRLATEVNWDEEKECFESLSKECAMFYSIRKQYISEESTLSGQQSEVPGSIPNSWKWTVEHIVYKALRSHILPPKHFTEDGNILQLANLPDLYKVFERC
partner: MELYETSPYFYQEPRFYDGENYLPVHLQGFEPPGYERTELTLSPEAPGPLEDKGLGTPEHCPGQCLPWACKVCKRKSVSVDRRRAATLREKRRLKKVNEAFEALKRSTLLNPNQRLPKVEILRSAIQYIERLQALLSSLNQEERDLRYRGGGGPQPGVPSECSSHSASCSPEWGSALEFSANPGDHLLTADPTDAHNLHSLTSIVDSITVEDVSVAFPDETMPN
B3: Lipopolysaccharide-induced tumor necrosis factor-alpha factor (Homo sapiens), Q99732 (parent)
chain: MSVPGPYQAATGPSSAPSAPPSYEETVAVNSYYPTPPAPMPGPTTGLVTGPDGKGMNPPSYYTQPAPIPNNNPITVQTVYVQHPITFLDRPIQMCCPSCNKMIVSQLSYNAGALTWLSCGSLCLLGCIAGCCFIPFCVDALQDVDHYCPNCRALLGTYKRL

Variants of: B1
Details: with bhe40_human BHLHE40, O14503
Sequence of bhe40_human BHLHE40, O14503 (O14503 whole entry): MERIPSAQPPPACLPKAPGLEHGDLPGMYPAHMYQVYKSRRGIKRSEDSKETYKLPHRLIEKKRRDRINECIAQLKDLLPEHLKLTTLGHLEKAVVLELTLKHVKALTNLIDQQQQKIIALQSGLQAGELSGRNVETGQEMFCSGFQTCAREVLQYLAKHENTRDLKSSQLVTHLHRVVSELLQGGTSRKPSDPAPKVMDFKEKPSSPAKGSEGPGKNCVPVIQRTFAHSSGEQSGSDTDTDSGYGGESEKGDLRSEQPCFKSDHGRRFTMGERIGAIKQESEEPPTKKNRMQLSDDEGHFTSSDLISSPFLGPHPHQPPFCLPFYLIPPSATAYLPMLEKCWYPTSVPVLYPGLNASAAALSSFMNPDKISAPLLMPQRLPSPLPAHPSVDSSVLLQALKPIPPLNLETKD

Row | effect of a mutation on the interaction | Variant
1 | disrupting interaction strength | A129T
2 | with no effect | T3M

Variants of: B1
Details: with mdfi_human MDFI

Row | effect of a mutation on the interaction | Variant
3 | with no effect | A129T
4 | with no effect | T3M

Variants of: B2
Details: with myog_human MYOG

Row | effect of a mutation on the interaction | Variant
5 | with no effect | R472I
6 | disrupting interaction strength | G244D

Variants of: B3
Details: with UBQLN1, Q9UMX0-2
Sequence of UBQLN1, Q9UMX0-2 (Q9UMX0 other isoform, or with tags, fused parts or gaps): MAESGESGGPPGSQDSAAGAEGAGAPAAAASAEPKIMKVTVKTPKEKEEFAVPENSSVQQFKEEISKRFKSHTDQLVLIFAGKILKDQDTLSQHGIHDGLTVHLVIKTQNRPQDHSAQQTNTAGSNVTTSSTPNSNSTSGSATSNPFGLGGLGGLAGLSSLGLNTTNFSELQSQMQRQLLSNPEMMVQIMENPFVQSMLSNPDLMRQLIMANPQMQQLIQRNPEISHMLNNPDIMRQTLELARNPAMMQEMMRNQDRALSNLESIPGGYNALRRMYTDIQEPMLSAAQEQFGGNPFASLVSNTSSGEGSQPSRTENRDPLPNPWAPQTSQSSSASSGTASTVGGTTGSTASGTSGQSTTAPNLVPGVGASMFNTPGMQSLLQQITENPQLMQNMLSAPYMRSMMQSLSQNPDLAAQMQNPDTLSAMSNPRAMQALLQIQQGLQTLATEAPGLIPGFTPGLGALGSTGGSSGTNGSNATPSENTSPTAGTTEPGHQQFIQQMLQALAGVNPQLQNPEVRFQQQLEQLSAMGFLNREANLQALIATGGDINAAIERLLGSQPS

Row | effect of a mutation on the interaction | Variant
7 | disrupting interaction strength | A111G

Variants of: B3
Details: with stam2_human STAM2, O75886

Row | effect of a mutation on the interaction | Variant
8 | disrupting interaction strength | A111G

Variants of: B3
Details: with reep6_human REEP6, Q96HR9
Sequence of reep6_human REEP6, Q96HR9 (Q96HR9 whole entry): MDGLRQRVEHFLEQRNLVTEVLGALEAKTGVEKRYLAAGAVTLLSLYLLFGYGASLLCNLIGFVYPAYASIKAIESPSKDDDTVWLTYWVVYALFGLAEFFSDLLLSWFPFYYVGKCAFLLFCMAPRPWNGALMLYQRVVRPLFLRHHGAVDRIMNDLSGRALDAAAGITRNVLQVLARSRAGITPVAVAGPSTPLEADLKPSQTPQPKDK

Row | effect of a mutation on the interaction | Variant
9 | disrupting interaction strength | A111G

Variants of: B3
Details: with hgs_human HGS

Row | effect of a mutation on the interaction | Variant
10 | disrupting interaction strength | A111G

Variants of: B3
Details: with OPTN

Row | effect of a mutation on the interaction | Variant
11 | disrupting interaction strength | A111G

Reference: IntAct's records for PubMed 25910212
